Measurements from patent US20140065163A1 (MERCK SERONO S A, published 2014).
Where a chain is given by its changes, count along the chain named. Names may count otherwise.

B1: MSB0010602 4K21 (4K21 hVH S55K-T62S hVL S27eY-N28I-H34S-N53R-H93Y) (antibody, V domains shown)
VH: EVQLVESGGGLVQPGGSLRLSCAASGFAFSAYDMSWVRQAPGKRLELVAYISSGGKSFYYPDSVKGRFTISRDNAKNSLYLQMNSLRAEDTAVYYCTRHLGFDYWGQGTLVTVSS
VL: DIVMTQSPLSLPVTPGEPASISCRSSQSLVNYIGNTYLSWYLQKPGQSPQLLIYKVSRRFSGVPDRFSGSGSGTDFTLKISRVEAEDVGVYYCSQSTYVPPTFGQGTKVEIK
notes: IgG
B2: MSB0010601 4K21 (4K21 hVH S55K-T62S hVL N28I-H34S-N53R-H93Y) (antibody, V domains shown)
VH: B1 VH
VL: B1 VL with Y32S
notes: IgG; also called optimized 4K21 antibody
B3: anti-GM-CSF 4K21 hIgG1K antibody (MSB0010259), recombinant chimeric 4K21 (antibody, V domains shown)
VH: EVQLVESGGGLVKSGGSLKLSCAASGFAFSAYDMSWVRQTPEKRLELVAYISSGGSSFYYPDTVKGRFTISRDNAKNTLYLQMSSLKSEDTAMYYCTRHLGFDYWGQGTTLTVSS
VL: DVVMTQTPLSLPVSLGDQASISCRSSQSLVNSNGNTYLHWFLQKPGQSPKLLIYKVSNRFSGVPDRFSGSGSGTDFTLKISRVEAEDLGVYFCSQSTHVPPTFGGGTKLEIK
notes: Murine variable domains fused to human constant IgG1 heavy chain and kappa light chain domains
B4: MSB0010599 4K21 (4K21 hVH S55R-T62S hVL N28I-H34S-N53R-H93Y) (antibody, V domains shown)
VH: B1 VH with K56R
VL: B1 VL with Y32S
notes: IgG
B5: MSB0010600 4K21 (4K21 hVH S55R-T62S hVL S27eY-N28I-H34S-N53R-H93Y) (antibody, V domains shown)
VH: B1 VH with K56R
VL: B1 VL
B6: humanized parental 4K21 hVH hVL + H93Y (MS100305-A) (antibody, V domains shown)
VH: B1 VH with K56S, S63T
VL: B1 VL with Y32S, I33N, S39H, R58N
B7: MSB0010595 4K21 (4K21 hVH S56V-T62S hVL S27eY-N28I-H34S-N53R-H93Y) (antibody, V domains shown)
VH: B1 VH with K56S, S57V
VL: B1 VL
B8: MSB0010603 4K21 (4K21 hVH S56V-T62S hVL N28I-H34S-N53R-H93Y) (antibody, V domains shown)
VH: B1 VH with K56S, S57V
VL: B1 VL with Y32S
notes: IgG

Molecular target: T1, macaca GM-CSF (Macaca mulatta (identical in Macaca …, UniProt Q0MUT8 18-144 (Chlorocebus aethiops entry), limits assumed))
T1 chain: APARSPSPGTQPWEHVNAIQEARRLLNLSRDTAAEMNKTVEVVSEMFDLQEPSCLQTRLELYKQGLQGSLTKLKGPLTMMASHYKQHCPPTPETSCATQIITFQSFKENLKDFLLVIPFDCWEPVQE
Assay: cell-based or functional assay

Binder	IC50, inhibition of GM-CSF induced IL-8 secretion in U937 cells (65 pM GM-CSF)
B1	232 pM
B2	340 pM

molecular target: T2, human GM-CSF I117 (human, UniProt P04141 18-144); assay: cell-based or functional assay

Binder	IC50, inhibition of GM-CSF induced IL-8 secretion in U937 cells (65 pM GM-CSF)
B1	267 pM
B2	334 pM

molecular target: T3, human GM-CSF T117 (human, UniProt P04141 18-144); assay: cell-based or functional assay

Binder	IC50, inhibition of GM-CSF induced IL-8 secretion in U937 cells (65 pM GM-CSF)
B1	177 pM
B2	263 pM

Molecular target: T1, macaca GM-CSF
Assay: KinExA, affinity in solution
Method: (§1) The 4K21 and reference antibodies were incubated at concentration below the expected Kd with serial dilutions of human GM-CSF I117 or T117, or macaca GM-CSF up to equilibrium. The remaining free antibody was measured in a Kinetic exclusion assay with the KinExA® instrument. Kd was calculated by fitting the curve of the signal obtained versus the GM-CSF concentrations. The average of two experiments using different IgG concentrations was calculated.

Binder	Kd
B3	104 pM
B2	12 pM

molecular target: T2, human GM-CSF I117; assay: KinExA, affinity in solution
Method: as §1

Binder	Kd
B3	17 pM
B2	6 pM

molecular target: T3, human GM-CSF T117; assay: KinExA, affinity in solution
Method: as §1

Binder	Kd
B3	174 pM
B2	5 pM

Molecular target: T1, macaca GM-CSF
Assay: cell-based or functional assay
Remark: another data set of the same source

Binder	Fold improvement of 4K21 H93Y alone on macaca (IC50, TF-1 proliferation)	Fold improvement of humanized parental 4K21 on macaca (IC50, TF-1 proliferation)	Fold macaca/human I117 (IC50, TF-1 proliferation)	IC50, inhibition of GM-CSF induced TF-1 proliferation (32 pM GM-CSF)
B3	0.1 fold	0.7 fold	9.3 fold	1220 pM
B4	1.8 fold	15 fold	3 fold	54 pM
B5	2.6 fold	21 fold	1.1 fold	37 pM
B6	1 fold	8 fold	3.2 fold	96 pM
B7	2.2 fold	18 fold	1.2 fold	44 pM
B1	4 fold	33 fold	1.2 fold	24 pM
B8	1.2 fold	10 fold	2.1 fold	82 pM
B2	1.8 fold	15 fold	2.3 fold	53 pM

molecular target: T2, human GM-CSF I117; assay: cell-based or functional assay; remark: another data set of the same source
Target sequence in this assay (P04141 18-144 limits assumed): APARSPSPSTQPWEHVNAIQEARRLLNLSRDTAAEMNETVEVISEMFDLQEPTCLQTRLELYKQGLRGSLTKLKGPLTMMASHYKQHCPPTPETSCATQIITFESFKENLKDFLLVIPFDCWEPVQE

Binder	Fold improvement of 4K21 H93Y alone on I117 (IC50, TF-1 proliferation)	Fold improvement of humanized parental 4K21 on I117 (IC50, TF-1 proliferation)	IC50, inhibition of GM-CSF induced TF-1 proliferation (32 pM GM-CSF)
B3	0.2 fold	0.9 fold	130 pM
B4	1.6 fold	6.7 fold	18 pM
B5	0.9 fold	3.6 fold	33 pM
B6	1 fold	4.1 fold	30 pM
B7	0.8 fold	3.2 fold	37 pM
B1	1.5 fold	6 fold	20 pM
B8	0.8 fold	3.1 fold	39 pM
B2	1.3 fold	5.3 fold	23 pM

molecular target: T3, human GM-CSF T117; assay: cell-based or functional assay; remark: another data set of the same source
Target sequence in this assay (P04141 18-144 I117T limits assumed): as the sequence (P04141 18-144 limits assumed) above, with I100T counted along it

Binder	Fold human T117/I117 (IC50, TF-1 proliferation)	Fold improvement of 4K21 H93Y alone on T117 (IC50, TF-1 proliferation)	Fold improvement of humanized parental 4K21 on T117 (IC50, TF-1 proliferation)	IC50, inhibition of GM-CSF induced TF-1 proliferation (32 pM GM-CSF)
B3	10.8 fold	0.1 fold	1 fold	1410 pM
B4	1 fold	9.5 fold	77 fold	18 pM
B5	1.4 fold	3.6 fold	30 fold	47 pM
B6	5.8 fold	1 fold	8 fold	172 pM
B7	1.2 fold	3.7 fold	30 fold	46 pM
B1	1.7 fold	5 fold	41 fold	34 pM
B8	0.9 fold	5.1 fold	42 fold	34 pM
B2	0.9 fold	8.3 fold	68 fold	21 pM

Molecular target: T1, macaca GM-CSF
Assay: cell-based or functional assay
Remark: another data set of the same source

Binder	Fold improvement of humanized parental 4K21 (IC50, TF-1 proliferation)	Fold macaca/human I117 (IC50, TF-1 proliferation)	IC50, inhibition of GM-CSF induced TF-1 proliferation (32 pM GM-CSF)
B6	5 fold	2.6 fold	111 pM

molecular target: T2, human GM-CSF I117; assay: cell-based or functional assay; remark: another data set of the same source

Binder	Fold improvement of humanized parental 4K21 (IC50, TF-1 proliferation)	IC50, inhibition of GM-CSF induced TF-1 proliferation (32 pM GM-CSF)
B6	2.3 fold	42 pM

molecular target: T3, human GM-CSF T117; assay: cell-based or functional assay; remark: another data set of the same source

Binder	Fold human T117/I117 (IC50, TF-1 proliferation)	Fold improvement of humanized parental 4K21 (IC50, TF-1 proliferation)	IC50, inhibition of GM-CSF induced TF-1 proliferation (32 pM GM-CSF)
B6	3.7 fold	6 fold	154 pM

molecular target: T2, human GM-CSF I117; assay: cell-based or functional assay; remark: another data set of the same source

Binder	Emax (%), inhibition of CD11b upregulation on neutrophils after GM-CSF stimulation	IC50, inhibition of CD11b upregulation on neutrophils after GM-CSF stimulation
B2	79%	1410 pM

molecular target: T3, human GM-CSF T117; assay: cell-based or functional assay; remark: another data set of the same source

Binder	Emax (%), inhibition of CD11b upregulation on neutrophils after GM-CSF stimulation	IC50, inhibition of CD11b upregulation on neutrophils after GM-CSF stimulation
B2	97%	2030 pM

molecular target: T4, human GM-CSF A117 mutant (human, UniProt P04141 18-144); assay: competition ELISA: antibody on coated wild-type human GM-CSF, competitor soluble human GM-CSF A117; single condition, competitor concentration not shown
T4 construct: also called hGM-CSF A117; A117 protein

Binder	binding result
B4	binds
B1	binds
B8	binds
B2	binds
